{"source": "patent US11753455B2", "about": "“Compounds for treatment of obesity” (Novo Nordisk A/S, priority 2018, dated 2023)", "test_system": "brain regions of mice (C57BL/6J)", "assay": "In vivo imaging of fluorescently labelled GLP-1 Fab fusion proteins in brain (LSFM)", "conditions": "single i.v. dose 120 nmol/kg, 6 hours", "procedure": "The two fusion proteins include one and the same GLP-1 receptor agonist compound but differ in the Fab part. […] The study is an acute study in mice.\nThe mice were anesthetised with isoflurane 6 hours (“6H”) following administration of compound and euthanised by transcardiac perfusion with 10 ml heparinised (10 U/ml) saline followed by 10 ml 10% neutral buffered formalin (NBF). Brains were removed and immersed into 10% NBF and stored at 4° C. O/N until further processed.\nThe brains were dehydrated and saturated in dibenzyl ether (DBE) to minimise scattering of light during scanning by removal of water, and by matching of the refractive index. Brain tissue was dehydrated at room temperature in graded tetrahydrofuran (THF) diluted in demineralised H2O (w/v) 50/80/96/99%/2×100% 6-12 hours for each step. The brains were then cleared at room temperature in 3×DBE for 6-12 hours each step.\nBrain samples were scanned using an UltraMicroscope II LSFM system (Lavision Biotec, Bielefeld, Germany) in 10.32 μm isotropic resolution. Data acquisition was performed using a 620/60 nm excitation filter and 680/30 nm emission filter for imaging autofluorescence, and a 710/75 nm excitation filter and 780/40 nm emission filter for imaging specific signals.\nImages are single plane images of a z plane (2D). Spectral unmixing was performed to minimise the contribution of tissue auto-fluorescence in the images of the specific signals presented. The unmixing was carried out in Imaris (Release 7.6.5, Zurich, Switzerland) on imported tiff-files. The estimated auto-fluorescence contribution in the specific channel was calculated and removed based on ratios of voxel intensities between selected voxels in the unspecific recording and the corresponding voxels in the specific channel. A ratio was computed for 40 sets of voxels selected based on the histogram of the unspecific recording. The unmixing algorithm was written in Matlab (Release 2012b, Math Works, Natick, Massachusetts, United States) and applied as a XT-plugin in Imaris.\nImages were registered to a common reference atlas space for visualisation and quantification using the Elastix software library version 4 (Klein, Stefan, et al. “Elastix: a toolbox for intensity-based medical image registration.” IEEE transactions on medical imaging 29.1 (2010): 196-205). A source image IS(x) was registered to the target atlas image IT(x) by finding a coordinate transformation T(x) that made IS(T(x)) spatially aligned with IT(x). […] Quantification was performed by summation of the unmixed intensity value of all voxels within the individual brain regions, indicating the total fluorescence signal from the compounds in these regions. […] The total signal thus indicates the total fluorescence signal from the compounds in these regions. […]", "key": {"[1]": {"conditions": "active vs inactive TfR compound"}}, "data": [{"molecule": "Example 8: VivoTag750 fluorescence labelled GLP-1 anti TfR-Fab fusion protein of Example 6 (conjugate, VivoTag750 fluorescent label; GLP-1 anti TfR-fab fusion protein; DISULFID (70)..(135); DISULFID (181)..(241); DISULFID (261)..(481); DISULFID (283)..(357); DISULFID (407)..(461)) HGEGTFTSDVSSYLEEQAAREFIAWLVKGRPGGGSGGGSGGGSGGGSDIQMTQSPASLSASLEEIVTITCQASQDIGNWLAWYQQKPGKSPQLLIYGATSLADGVPSRFSGSRSGTQFSLKISRVQVEDIGIYYCLQAYNTPWTFGGGTKLELKRADAAPTVSIFPPSSEQLTSGGASVVCFLNNFYPKDINVKWKIDGSERQNGVLNSWTDQDSKDSTYSMSSTLTLTKDEYERHNSYTCEATHKTSTSPIVKSFNRNECEVQLVESGGGLVQPGNSLTLSCVASGFTFSNYGMHWIRQAPKKGLEWIAMIYYDSSKMNYADTVKGRFTISRDNSKNTLYLEMNSLRSEDTAMYYCAVPTSHYVVDVWGQGVSVTVSSAKTTPPSVYPLAPGSAAQTNSMVTLGCLVKGYFPEPVTVTWNSGSLSSGVHTFPAVLQSDLYTLSSSVTVPSSTWPSETVTCNVAHPASSTKVDKKIVPRDCGHHHHHHHHHH", "values": [{"measurement": "total fluorescence signal in brain regions that do not express the GLP-1R (FIG. 16D)", "setting": "[1]", "result": "slightly higher"}, {"measurement": "total fluorescence signal in circumventricular organs expressing the GLP-1R but devoid of a BBB (FIG. 16B)", "setting": "[1]", "result": "slightly higher"}, {"measurement": "total fluorescence signal in brain regions expressing the GLP-1R (FIG. 16A)", "setting": "compared to GLP-1-Inactive TfR", "result": "higher"}, {"measurement": "total fluorescence signal in brain structures expressing the GLP-1R which are protected by the BBB (FIG. 16C)", "setting": "compared to GLP-1-Inactive TfR", "result": "highly increased"}]}]}
